Data as given in US20060024786A1, “WASP and N-WASP constructs and methods of expressing such constructs” (Cytokinetics, Inc., priority 2004, published 2006).

Key:
Assay in all cases: cell-based or functional assay
[1] = biological target: full length human N-WASP (Myc-N-WASP-TAP) (human)
[2] = biological target: full length human WASP (Myc-WASP-TAP) (human)
Arp2/3 complex (human) = Arp2/3 complex (human) (UniProt P61158)

Barbed ends % of max. (after subtracting baseline) [1] | Barbed ends, nM (pyrene-actin polymerization assay) [1] | EC50, nM (activation of actin polymerization) [1] | Barbed ends % of max. (after subtracting baseline) [2] | Barbed ends, nM (pyrene-actin polymerization assay) [2] | EC50, nM (activation of actin polymerization) [2] | activity relative to 105 WASP (actin polymerization, EC50 comparison) (Arp2/3 complex (human)) | concentration giving maximal barbed ends (500 nM Cdc42, 2.5 nM Arp2/3, 3.5 uM actin) (Arp2/3 complex (human)) | potency relative to the VCA/WA domain (actin polymerization, EC50 comparison) (Arp2/3 complex (human)) | Substance
78% | 3.5 nM | 7 nM | 50% | 2.6 nM | 12 nM |  |  |  | GST_NCK2
 |  | 287 nM |  |  | 16 nM |  |  |  | N_GST_tev_Cdc42 GTP (bacterial GST tagged Cdc42 protein) (enzyme)
 |  |  |  |  |  | 20 times | 3 nM | > 70 times | full length human WASP (Myc-WASP-TAP)
